± gives the standard error. Variants at the floor of the assay were thinned out.
B1: glmS ribozyme (parent)
chain: AUAAAAGCGCCAGAACUACAGAAAUGUAGUUGACGAGGAGGAGGUUUAUCGAAUUUUCGGCGGAUGCCUCCAAA

Assays:
Conditions in all cases: with glucosamine-6-phosphate
glucosamine-6-phosphate [1] = variants of: B1; experiment: self-cleavage kobs at 160 uM GlcN6P; higher = faster cleavage; RNA array
How it was run: (§1)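 kcat and KM were obtained from weighted Michaelis–Menten fits across concentrations of kobs values. Those came from one- or two-exponential decay fits to per-tile medians normalised to baseline and to non-cleaving reference variants. The variants were barcoded ribozymes transcribed in situ by E. coli RNA polymerase on sequenced MiSeq chips and tracked through a hybridised Cy3 probe at 37 °C, with 40 μM to 10 mM glucosamine-6-phosphate in HEPES/KCl/Mg(OAc)2 buffer flowed in.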

glucosamine-6-phosphate [2] = variants of: B1; experiment: self-cleavage kobs at 640 uM GlcN6P; higher = faster cleavage; RNA array
How it was run: as §1

glucosamine-6-phosphate [3] = variants of: B1; experiment: self-cleavage kobs at 2500 uM GlcN6P; higher = faster cleavage; RNA array
How it was run: as §1

glucosamine-6-phosphate [4] = variants of: B1; experiment: self-cleavage kobs at 10000 uM GlcN6P; higher = faster cleavage; RNA array
How it was run: as §1

Variant | self-cleavage kobs at 160 uM GlcN6P (glucosamine-6-phosphate [1]) | self-cleavage kobs at 640 uM GlcN6P (glucosamine-6-phosphate [2]) | self-cleavage kobs at 2500 uM GlcN6P (glucosamine-6-phosphate [3]) | self-cleavage kobs at 10000 uM GlcN6P (glucosamine-6-phosphate [4])
U30G C50G C58G G60U C61G | 0.000251 ± 7.4e-05 s⁻¹ | 0.00014 ± 2.9e-05 s⁻¹ | 0.00022 ± 6.9e-05 s⁻¹ | –
A42U U47C A52C | < 1e-05 s⁻¹ | – | < 1e-05 s⁻¹ | –
G38U G41C G59C | < 1e-05 s⁻¹ | < 1e-05 s⁻¹ | – | –
A14G U45G A53U | 0.000618 ± 0.00016 s⁻¹ | 0.00262 ± 0.00057 s⁻¹ | 0.00337 ± 0.0012 s⁻¹ | –
G13U G35C G51C U54A C70U | < 1e-05 s⁻¹ | – | < 1e-05 s⁻¹ | –
A36U U49G A52C | < 1e-05 s⁻¹ | – | – | –
A6C G7C A33C C50G A52C U65C | < 1e-05 s⁻¹ | – | – | –
C8G U47G U54A G63U | < 1e-05 s⁻¹ | < 1e-05 s⁻¹ | < 1e-05 s⁻¹ | –
A15U G37U | < 1e-05 s⁻¹ | – | – | < 1e-05 s⁻¹
G35A G43U U45C A53G G59A | < 1e-05 s⁻¹ | < 1e-05 s⁻¹ | – | –
C8U G29U G41A G44C | < 1e-05 s⁻¹ | – | – | –
C10U C11G A33U | < 1e-05 s⁻¹ | < 1e-05 s⁻¹ | < 1e-05 s⁻¹ | < 1e-05 s⁻¹
U56C U57G C58A | 0.00183 ± 0.0009 s⁻¹ | – | – | –
A12G C34A A36G | < 1e-05 s⁻¹ | – | < 1e-05 s⁻¹ | –
G9A C11A G35A U47C C68A | < 1e-05 s⁻¹ | – | < 1e-05 s⁻¹ | –
U49A U54A C70G | 4.17e-05 ± 1.8e-05 s⁻¹ | – | – | –
A6U A14U G38U C50A G51U A53C G63A | < 1e-05 s⁻¹ | – | – | –
G59U G60U G62A | < 1e-05 s⁻¹ | – | < 1e-05 s⁻¹ | –
G59A G62U | < 1e-05 s⁻¹ | – | < 1e-05 s⁻¹ | –
U30A U56G | 0.000202 ± 6.6e-05 s⁻¹ | 0.00118 ± 0.00024 s⁻¹ | 0.0019 ± 0.00059 s⁻¹ | –
G32U C50A G59A | < 1e-05 s⁻¹ | < 1e-05 s⁻¹ | – | –
A6U A12G G66U | 8.08e-05 ± 2.3e-05 s⁻¹ | – | – | –
U57A G60A | < 1e-05 s⁻¹ | – | – | –
C8G U30A G40U | < 1e-05 s⁻¹ | – | < 1e-05 s⁻¹ | –
U46A C61G | < 1e-05 s⁻¹ | < 1e-05 s⁻¹ | < 1e-05 s⁻¹ | –
C11A G38A U45A | < 1e-05 s⁻¹ | – | – | –
C11G A14G G29A | < 1e-05 s⁻¹ | – | – | –

Variant | self-cleavage kobs at 160 uM GlcN6P (glucosamine-6-phosphate [1]) | self-cleavage kobs at 640 uM GlcN6P (glucosamine-6-phosphate [2]) | self-cleavage kobs at 2500 uM GlcN6P (glucosamine-6-phosphate [3]) | self-cleavage kobs at 10000 uM GlcN6P (glucosamine-6-phosphate [4])
G35U G43U A53C C70A | < 1e-05 s⁻¹ | – | – | –
G32U A52U | < 1e-05 s⁻¹ | < 1e-05 s⁻¹ | < 1e-05 s⁻¹ | –
C8A C16A G40C U65G | < 1e-05 s⁻¹ | – | < 1e-05 s⁻¹ | –
G7U A15C A36U U47C | < 1e-05 s⁻¹ | < 1e-05 s⁻¹ | < 1e-05 s⁻¹ | –
G38C G43A | < 1e-05 s⁻¹ | < 1e-05 s⁻¹ | < 1e-05 s⁻¹ | < 1e-05 s⁻¹
G62U C68G | < 1e-05 s⁻¹ | < 1e-05 s⁻¹ | – | < 1e-05 s⁻¹
G32U G63C | < 1e-05 s⁻¹ | < 1e-05 s⁻¹ | – | < 1e-05 s⁻¹
A48U G51U | < 1e-05 s⁻¹ | – | < 1e-05 s⁻¹ | –
A33C A39C A52U C70U | < 1e-05 s⁻¹ | < 1e-05 s⁻¹ | – | –
A33U G41U A52U | < 1e-05 s⁻¹ | < 1e-05 s⁻¹ | < 1e-05 s⁻¹ | –
C10U A12C U31G A42G | < 1e-05 s⁻¹ | – | – | –
U31A G35C A48G | < 1e-05 s⁻¹ | < 1e-05 s⁻¹ | – | –
G9U G32C | < 1e-05 s⁻¹ | < 1e-05 s⁻¹ | – | < 1e-05 s⁻¹
G40A C50U | < 1e-05 s⁻¹ | < 1e-05 s⁻¹ | – | < 1e-05 s⁻¹
C16U A42G A48U G66U | < 1e-05 s⁻¹ | < 1e-05 s⁻¹ | – | –
U30G G40A | 0.000128 ± 3.7e-05 s⁻¹ | 0.000261 ± 6.3e-05 s⁻¹ | 0.000813 ± 0.00013 s⁻¹ | –
G7A G59C | < 1e-05 s⁻¹ | < 1e-05 s⁻¹ | – | –
A15G G29U C34U | < 1e-05 s⁻¹ | – | – | –
A42G G62C | < 1e-05 s⁻¹ | < 1e-05 s⁻¹ | < 1e-05 s⁻¹ | < 1e-05 s⁻¹
G38C U46G A64U | < 1e-05 s⁻¹ | < 1e-05 s⁻¹ | – | –
G7A G43C | < 1e-05 s⁻¹ | < 1e-05 s⁻¹ | < 1e-05 s⁻¹ | < 1e-05 s⁻¹
G41U G44C U54C | < 1e-05 s⁻¹ | < 1e-05 s⁻¹ | < 1e-05 s⁻¹ | –
U31A G51A | < 1e-05 s⁻¹ | < 1e-05 s⁻¹ | < 1e-05 s⁻¹ | < 1e-05 s⁻¹
A6G A14U A48G G63U | < 1e-05 s⁻¹ | < 1e-05 s⁻¹ | < 1e-05 s⁻¹ | –
A6C A15U C71G | < 1e-05 s⁻¹ | – | – | –
U30A A39C U55C | 4.87e-05 ± 1.3e-05 s⁻¹ | 0.00025 ± 4.5e-05 s⁻¹ | 0.000864 ± 0.00021 s⁻¹ | –
G41A G51U | < 1e-05 s⁻¹ | < 1e-05 s⁻¹ | < 1e-05 s⁻¹ | < 1e-05 s⁻¹
